Measurements taken from patent US20240076386A1 (Pfizer, published 2024).

T1: recombinant histidine-tagged cynomolgus monkey E-selectin (Sino Biologicals; 190169-C08H) (cynomolgus monkey, UniProt A0A2K5U7H9 22-554)
T1 construct: also called recombinant cynomolgus monkey E-selectin
T1 sequence: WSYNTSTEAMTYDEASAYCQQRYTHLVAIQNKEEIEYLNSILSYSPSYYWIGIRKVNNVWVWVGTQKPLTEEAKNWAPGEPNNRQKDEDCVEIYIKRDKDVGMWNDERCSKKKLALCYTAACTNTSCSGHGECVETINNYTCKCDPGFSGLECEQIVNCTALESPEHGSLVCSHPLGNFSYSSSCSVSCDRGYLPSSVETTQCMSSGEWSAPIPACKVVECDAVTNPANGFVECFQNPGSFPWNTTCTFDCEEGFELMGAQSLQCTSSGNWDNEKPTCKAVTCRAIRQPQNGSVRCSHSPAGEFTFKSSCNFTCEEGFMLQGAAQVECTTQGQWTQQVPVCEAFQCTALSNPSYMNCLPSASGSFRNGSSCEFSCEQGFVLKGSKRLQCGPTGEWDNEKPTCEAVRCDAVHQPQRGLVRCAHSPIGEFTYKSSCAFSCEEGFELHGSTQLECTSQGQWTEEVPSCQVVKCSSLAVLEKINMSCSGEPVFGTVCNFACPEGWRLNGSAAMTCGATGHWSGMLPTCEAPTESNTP

T2: human E-selectin extracellular domain with 10 His purification tail (human, UniProt P16581 22-556)
T2 construct: also called soluable human E-selectin extracellular domain; rhE-Selectin
T2 sequence: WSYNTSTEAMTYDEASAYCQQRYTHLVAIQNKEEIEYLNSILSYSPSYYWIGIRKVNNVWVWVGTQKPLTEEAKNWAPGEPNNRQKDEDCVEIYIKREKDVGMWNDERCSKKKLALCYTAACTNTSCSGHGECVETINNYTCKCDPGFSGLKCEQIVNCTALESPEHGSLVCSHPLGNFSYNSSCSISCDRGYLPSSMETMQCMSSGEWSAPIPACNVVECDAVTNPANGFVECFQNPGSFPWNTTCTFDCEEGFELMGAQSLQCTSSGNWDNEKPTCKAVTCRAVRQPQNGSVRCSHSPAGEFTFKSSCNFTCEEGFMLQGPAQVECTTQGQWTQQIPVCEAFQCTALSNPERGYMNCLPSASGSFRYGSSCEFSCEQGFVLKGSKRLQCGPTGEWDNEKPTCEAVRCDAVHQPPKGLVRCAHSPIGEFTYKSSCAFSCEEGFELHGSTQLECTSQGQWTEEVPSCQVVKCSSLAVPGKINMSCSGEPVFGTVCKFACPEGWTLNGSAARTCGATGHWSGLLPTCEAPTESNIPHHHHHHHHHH


How the values were obtained:
[1] = biological target: T1, recombinant histidine-tagged cynomolgus …; assay: competition ELISA, His-tagged E-selectin on Ni-NTA plate vs HRP-conjugated sialyl Lewis A
Procedure: Recombinant histidine-tagged E-selectin; cynomolgus monkey E-selectin (Sino Biologicals; 190169-C08H) and human E-selectin (Sino Biologicals; 13025-H08H) stock solutions were prepared to a final concentration of 3 μg/mL in phosphate buffered saline (PBS) without calcium and magnesium. One hundred μL per well of the diluted recombinant E-selectin protein was added into a Ni-NTA HisSorb 96 well plate (Qiagen, 35061) and plates were incubated on an orbital shaker at room temperature for 2 hours. Sialyl Lewis A polyacrylamide biotin, a synthetic E-selectin ligand (GlycoTech corporation 01-044), was conjugated to streptavidin HRP (horse radish peroxidase) (Ultra Streptavidin HRP, Thermo Scientific N504) and diluted in assay diluent containing 2 mM calcium chloride (BD OptEIA buffer; BD Biosciences, 555213).
Following the incubation, the plates were washed 5 times with 200 μL of wash buffer containing 2 mM of calcium chloride (50 mM TRIS [trisaminomethane]; 150 mM sodium chloride, 0.05% polysorbate 20, pH 7.4; 2 mM of calcium chloride). […] The final antibody concentration ranged from 200 nM to 0.09 nM and the final concentration of HRP conjugated Sialyl Lewis A was 5 μg/mL. Plates were washed as mentioned before, and 100 μL per well of 1-Step Ultra TMB substrate (Thermo Scientific, 34028) was added and incubated for 5 minutes at room temperature. Reactions were stopped with 100 μl of 2M sulfuric acid and absorbance read at 450 nm (Spectramax M5e). Data were analyzed and graphed using GraphPad Prism software (Version 8.0.2).

[2] = biological target: T2, human E-selectin extracellular domain …; assay: SPR, antibody captured, E-selectin analyte
Procedure: All flow cells were blocked with 1M Ethanolamine-HCl (ETH) for 7 minutes at 10 μL/minute. Final immobilization level of the capture antibody was approximately 10,000 resonance units (RU). The running buffer for immobilization and kinetics was HBS-EP+(10 mM 4-(2-hydroxyethyl)-1-piperazineethanesulfonic acid (HEPES) pH 7.4, 150 mM sodium chloride, 3 mM ethylenediaminetetraacetic acid (EDTA), 0.05% (v/v) Tween-20).
To characterize binding of antibodies to human, cynomolgus monkey, and mouse E-selectin, an antibody was diluted to 0.5 μg/mL in HBS-EP+ and captured by the anti-human IgG immobilized on flow cells 2, 3 and 4 for 30 seconds to 1 minute at a flow rate of 10 μL/minute to achieve a capture level of 70 to 300 RU. Flow cell 1 was used as a reference surface. […] HBS-EP+ buffer cycles collected for each captured antibody were used for double-referencing (Myszka D G. J. Mol. Recognition 1999; 12(5):279-84). At the end of each cycle, the entire anti-IgG surface was regenerated by a 30 second pulse of 3 M MgCl₂ and a 30 second pulse of ionic buffer (1.83 M MgCl₂, 0.92 M Urea, 1.83 M Guanidine HCl, pH 7.4) (Andersson K. Analy. Chem. 1999; 71(13): 2475-81). Kinetic assays were conducted at 25° C. at a collection rate of 10 Hertz (Hz) on a BIAcore™ T200 instrument (GE Healthcare). Rate constants and affinities were determined by fitting the data to a 1:1 binding model in BIAcore™ T200 Evaluation software version 3.0 (GE Healthcare).
This was done by first binding the antibody to immobilized anti-human IgG. After antibody capture, dilutions of the E-selectin proteins were flowed over and the association rate constant (ka), disassociation rate constant (kd), t½, and KD values were determined for binding to human and cynomolgus (Table 26).

| IC50 [1] [nM] | Kd [2] [nM] | koff [2] [s⁻¹] | kon [2] [M⁻¹ s⁻¹] | t½ [2] [s] | Binder |
| --- | --- | --- | --- | --- | --- |
| 3.23 | 70.3 | 0.0141 | 201000 | 49.3 | optimized anti-E-selectin antibody 1282 (antibody, human IgG1, kappa, V domains shown, effector-null human IgG1, kappa) VH: EVQLVESGGGLVQPGGSLRLSCAASGYAIRSAYMHWVRQAPGKGLEWVARIDPANGNTIYVDSVEGRFTISADNAKNSAYLQMNSLRAEDTAVYYCAMDLYSTSEYWGQGTLVTVSS VL: DIQMTQSPSSLSASVGDRVTITCKTSQNIERYLNWYQQKPGKAPKLLIYAASSLQSGVPSRFSGSGSGTDFTLTISSLQPEDFATYFCLQDNAWPLTFGQGTKVEIKR |
| 3.39 | 65.2 | 0.0145 | 222000 | 48 | optimized anti-E-selectin antibody 1284 (antibody, human IgG1, kappa, V domains shown, effector-null human IgG1, kappa) VH: EVQLVESGGGLVQPGGSLRLSCAASGYAIRSAYMHWVRQAPGKGLEWVARIDPANGNTIYVESVEGRFTISADNAKNSAYLQMNSLRAEDTAVYYCAMDLYSTSEYWGQGTLVTVSS VL: DIQMTQSPSSLSASVGDRVTITCKTSQNIERYLNWYQQKPGKAPKLLIYAASSLQSGVPSRFSGSGSGTDFTLTISSLQPEDFATYFCLQDNAWPLTFGQGTKVEIKR |
| 2.91 | 61.8 | 0.0163 | 264000 | 42.7 | optimized anti-E-selectin antibody 1444 (antibody, human IgG1, kappa, V domains shown, effector-null human IgG1, kappa) VH: EVQLVESGGGLVQPGGSLRLSCAASGYAIRSAYMHWVRQAPGKGLEWVARIDPANGNTIYVDSVTGRFTISADNAKNSAYLQMNSLRAEDTAVYYCAMDLYSTSEYWGQGTLVTVSS VL: DIQMTQSPSSLSASVGDRVTITCKTSQNIERYLNWYQQKPGKAPKLLIYAASSLQSGVPSRFSGSGSGTDFTLTISSLQPEDFATYFCLQDNAWPLTFGQGTKVEIKR |
| 2.74 | 60.5 | 0.0126 | 210000 | 55 | optimized anti-E-selectin antibody 1448 (antibody, human IgG1, kappa, V domains shown, effector-null human IgG1, kappa) VH: EVQLVESGGGLVQPGGSLRLSCAASGYAIRSAYMHWVRQAPGKGLEWVARIDPANGNTIYVDSVKERFTISADNAKNSAYLQMNSLRAEDTAVYYCAMDLYSTSEYWGQGTLVTVSS VL: DIQMTQSPSSLSASVGDRVTITCKTSQNIERYLNWYQQKPGKAPKLLIYAASSLQSGVPSRFSGSGSGTDFTLTISSLQPEDFATYFCLQDNAWPLTFGQGTKVEIKR |
| 3.29 | – | – | – | – | anti-E-selectin antibody 0164 chimera (antibody, human IgG1, kappa, V domains shown, rat VH/VL on effector-null human IgG1 and human kappa) VH: EVQLQQSGAEFGKPGTSVKLSCKVSGYNIRSSYMHWVNQRPGKGLEWIGRIDPANGNTIYAEKFKIKAILTADSSSNTAYMQLSQLKSDDTAIYFCAMDLYSTSEYWGQGVMVTVSS VL: DIQMTQSPSFLSASVGDRVTINCKTSQNINRYLNWYQQKLGEAPKLLIYNANSLQTGIPSRFSASGSGTDFTLTINSLQPEDVATYFCLQDNSWPLTFGSGTKLEIKR |
